One data set has as its target T1, C2 (Homo sapiens, UniProt P06681).
T1 construct: from tissue
T1 sequence (P06681 21-752): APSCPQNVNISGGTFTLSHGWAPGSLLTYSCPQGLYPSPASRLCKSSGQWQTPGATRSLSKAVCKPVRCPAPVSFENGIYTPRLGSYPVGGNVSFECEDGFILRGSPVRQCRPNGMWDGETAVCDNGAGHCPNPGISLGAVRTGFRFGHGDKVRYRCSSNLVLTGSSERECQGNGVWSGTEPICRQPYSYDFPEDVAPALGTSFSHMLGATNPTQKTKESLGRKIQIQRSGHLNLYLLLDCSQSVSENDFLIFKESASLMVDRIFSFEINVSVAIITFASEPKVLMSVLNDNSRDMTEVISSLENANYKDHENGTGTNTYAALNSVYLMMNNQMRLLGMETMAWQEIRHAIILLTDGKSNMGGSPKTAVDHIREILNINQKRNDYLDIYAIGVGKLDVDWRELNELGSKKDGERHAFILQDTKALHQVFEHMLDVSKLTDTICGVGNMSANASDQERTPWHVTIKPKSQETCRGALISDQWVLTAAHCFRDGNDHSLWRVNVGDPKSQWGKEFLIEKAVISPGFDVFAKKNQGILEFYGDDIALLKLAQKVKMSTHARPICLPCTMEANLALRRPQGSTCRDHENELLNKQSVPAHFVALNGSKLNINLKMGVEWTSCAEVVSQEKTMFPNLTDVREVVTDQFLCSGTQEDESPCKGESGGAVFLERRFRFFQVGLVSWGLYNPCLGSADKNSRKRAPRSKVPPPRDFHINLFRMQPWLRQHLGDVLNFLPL
In words: C2 cleavage by MASP fragments. It counts as biochemical. As to conditions: 37° C., pH 7.4; averages of 2 to 4 experiments, standard errors. Here is the method:
(§1) C2, C3, C3(NH3), C4 cleavage—Serial dilutions of MASP-1 and MASP-2 fragments ranging between concentrations of 1 μM and 10 pM were incubated at 37° C. in 20 mM HEPES, 140 mM NaCl, pH 7.4 with C2, C3, C3(NH3) or C4 at typical concentrations of 0.5-1 μM. The cleavage was followed by SDS-PAGE under reducing conditions. Desirable concentrations of the MASP fragments for further detailed kinetic analysis were chosen to be where half of the protein substrates were hydrolyzed during the first 20 minutes of incubation. The protein substrates C2, C3, C3(NH3) or C4 were then incubated with the selected concentrations of the MASP fragments at 37° C. in 20 mM HEPES, 140 mM NaCl, pH 7.4. Typically 11-13 samples were taken at varying time periods but always within 50 minutes from the beginning of the reaction. Cleavages rates were quantified by measuring the diminution of the cleaved chain visualized by Coomassie stained SDS-PAGs using a GEL DOC 1000 instrument and Molecular Analyst Software for densitometric calculations (Bio-Rad, Hercules, Calif., USA). The reactions were assumed to be of the Michaelis-Menten type. In the case of C3 and C3(NH3) cleavage a further reasonable assumption of KM>>[substrate] was made. The constants KM, kcat and […] were estimated by unbiased non-linear regression methods regressing the data on the following equations: t=([S0]−[S]+KMln([S0]/[S]))/(kcat[E0]) or in the case of C3 and C3(NH3) cleavage on [S]=[S0]exp(−t[E0]kcat/KM).

The next data set concerns C4. In words: C4 cleavage by MASP fragments. The class given is biochemical, human. The conditions noted are these: 37° C., pH 7.4; averages of 2 to 4 experiments, standard errors. The protocol:
as §1

The nature of data set [1]: Autoactivation of MASP fragments followed on reducing SDS-PAGE. The class given is biochemical. As to conditions: after renaturation / purification. From the text: The catalytic region of MASP-1 and MASP-2, consisting of the two complement control protein modules and the serine protease domain (CCP1-CCP2-SP) (FIG. 3.) was expressed in E. coli BL-21 cells using the pET-17b expression vector. In the case of MASP-2, truncated fragments of the catalytic region (the serine protease domain with one CCP module and the serine protease domain alone) (FIG. 3) were also expressed in the same expression system. Since the recombinant proteins accumulated as inclusion bodies inside the bacterial cells, renaturation procedures were needed to restore the native, folded structure (see Materials and Methods). The renatured recombinant proteins were purified by ion exchange chromatography on Q-Sepharose Fast Flow and Mono-S columns. The renaturation and the purification procedures were followed by SDS-PAGE and the purified proteins were subjected to N-terminal sequencing. Before renaturation the inclusion body proteins yielded single bands on the reducing SDS-PAGE corresponding to the zymogen form of the enzymes. […] The MASP-1 CCP1-CCP2-SP fragment co-purified with a minor contaminant, which migrated on SDS-PAGE as a band of 24 kDa under reducing and at 39 kDa under non-reducing conditions. […] The cleavage occurred at the Arg^504-Asp^505 bond removing the histidine from the catalytic triad and thus causing the loss of its enzymatic activity. […]

B1: MASP-1γB: E. coli-expressed, refolded human MASP-1 CCP1-CCP2-SP fragment, Gly298 to Asn699 with N-terminal Ala-Ser-Met-Thr tag (protein)
chain 1: ASMTGNECPELQPPVHGKIEPSQAKYFFKDQVLVSCDTGYKVLKDNVEMDTFQIECLKDGTWSNKIPTCKIVDCRAPGELEHGLITFSTRNNLTTYKSEIKYSCQEPYYKMLNNNTGIYTCSAQGVWMNKVLGRSLPTCLPVCGLPKFSRKLMAR
chain 2: IFNGRPAQKGTTPWIAMLSHLNGQPFCGGSLLGSSWIVTAAHCLHQSLDPEDPTLRDSDLLSPSDFKIILGKHWRLRSDENEQHLGVKHTTLHPQYDPNTFENDVALVELLESPVLNAFVMPICLPEGPQQEGAMVIVSGWGKQFLQRFPETLMEIEIPIVDHSTCQKAYAPLKKKVTRDMICAGEKEGGKDACAGDSGGPMVTLNRERGQWYLVGTVSWGDDCGKKDRYGVYSYIHHNKDWIQRVTGVRN
As for B1, the C2 kcat with C2 came out at 0.10 ± 0.07 s⁻¹. For the same molecule, in the data set on C4, the C4 kcat was 0.002 ± 0.001 s⁻¹. The “autoactivation, in words” value in data set [1] is “fully activated”.

The record behind these values is patent US8173397B2, “Folded recombinant catalytic fragments of multidomain serine proteases, preparation and uses thereof” (TargetEx Kft., priority 2002, dated 2012).
